The record followed here is patent US20190153113A1, “CD39 VASCULAR ISOFORM TARGETING AGENTS” (INNATE PHARMA, priority 2015, published 2019).

Assay [1] deals with T1, Human CD39 (vascular CD39, NTPDase1, ENTPD1) expressed at the cell surface (human, UniProt P49961 1-510).
T1 construct: also called huCD39; HEK-huCD39
T1 sequence: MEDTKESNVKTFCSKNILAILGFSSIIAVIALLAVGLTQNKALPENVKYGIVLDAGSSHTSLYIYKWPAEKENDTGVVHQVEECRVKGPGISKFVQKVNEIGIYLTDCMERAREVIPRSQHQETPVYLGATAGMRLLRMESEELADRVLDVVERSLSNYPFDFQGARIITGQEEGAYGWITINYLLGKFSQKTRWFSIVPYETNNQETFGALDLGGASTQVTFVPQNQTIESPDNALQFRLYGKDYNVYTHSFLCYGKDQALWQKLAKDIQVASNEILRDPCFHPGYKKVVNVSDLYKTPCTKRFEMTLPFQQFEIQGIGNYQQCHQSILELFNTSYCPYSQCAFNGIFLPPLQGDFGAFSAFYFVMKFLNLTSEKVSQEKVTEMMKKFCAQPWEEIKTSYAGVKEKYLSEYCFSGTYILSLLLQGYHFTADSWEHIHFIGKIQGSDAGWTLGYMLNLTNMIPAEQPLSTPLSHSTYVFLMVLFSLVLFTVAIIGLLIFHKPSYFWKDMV
As to the kind of experiment: flow cytometry on HEK cells expressing human CD39, antibody 99 nM to 0.045 nM (FIG. 1 legend says ELISA). On the procedure:
Briefly, 1×10⁵ HEK-huCD39or cynoCD39 cells were incubated with various concentration of unlabeled anti-CD39 antibody or isotype control (IC) from 99 nM to 0.045 nM, for 30 minutes at 4° C. After washes, cells were incubated with Goat anti-mouse H+L labeled secondary antibody for 30 min at 4° C.
For orientation: A flow cytometer gives signals particle by particle.

The target in assay [2] is T2, Recombinant human CD39-L4 (NTPDase5, ENTPD5) (human, UniProt O75356 25-428).
T2 construct: Coated in ELISA
T2 sequence: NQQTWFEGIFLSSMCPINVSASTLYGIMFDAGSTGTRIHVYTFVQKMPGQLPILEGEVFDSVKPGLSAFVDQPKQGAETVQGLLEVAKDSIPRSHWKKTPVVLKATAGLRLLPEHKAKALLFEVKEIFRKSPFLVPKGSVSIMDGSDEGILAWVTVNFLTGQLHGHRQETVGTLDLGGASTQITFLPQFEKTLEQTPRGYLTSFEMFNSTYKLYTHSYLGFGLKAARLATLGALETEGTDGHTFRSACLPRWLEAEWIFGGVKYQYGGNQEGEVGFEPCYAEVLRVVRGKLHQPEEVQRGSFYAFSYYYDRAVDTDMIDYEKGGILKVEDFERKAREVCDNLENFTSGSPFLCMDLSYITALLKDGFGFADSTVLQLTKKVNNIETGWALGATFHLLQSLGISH
The experiment in a line: ELISA on coated RechuCD39-L4, OD 450 nm [top panel CHS2-I-391]. On the procedure: Wells were washed in TBS Tween 20, and further saturated 2H at RT in TBS Blocking buffer. Dose range concentration of primary antibody was incubated in TBS blocking buffer for 2h at RT. Wells were washed in TBS Tween 20. […] Optical density was measured on Enspire at OD=450.
On the technique in general: An ELISA detects its analyte on a solid surface through an enzyme-linked reagent.

Assay [3] has as its target T3, CD39 mutant 5 (Q96A, N99A, E143A, R147E) (human, UniProt P49961 1-510).
T3 construct: Transfected in HEK293T cells
T3 chain: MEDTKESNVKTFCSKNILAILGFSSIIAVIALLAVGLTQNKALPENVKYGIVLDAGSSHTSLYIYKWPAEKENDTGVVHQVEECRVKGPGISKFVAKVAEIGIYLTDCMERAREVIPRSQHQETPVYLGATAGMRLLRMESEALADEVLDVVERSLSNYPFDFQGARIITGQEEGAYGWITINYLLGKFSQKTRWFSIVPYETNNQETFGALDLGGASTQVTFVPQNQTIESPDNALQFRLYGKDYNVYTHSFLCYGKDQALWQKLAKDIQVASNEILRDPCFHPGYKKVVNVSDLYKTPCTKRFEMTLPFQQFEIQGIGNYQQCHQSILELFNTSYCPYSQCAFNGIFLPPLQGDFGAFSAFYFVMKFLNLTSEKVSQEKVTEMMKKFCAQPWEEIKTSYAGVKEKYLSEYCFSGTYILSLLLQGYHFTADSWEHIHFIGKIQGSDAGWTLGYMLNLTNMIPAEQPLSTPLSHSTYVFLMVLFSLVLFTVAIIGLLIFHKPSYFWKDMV
The experiment in a line: flow cytometry on transfected HEK293T cells.

The target in assay [4] is T4, CD39 mutant 2B (E110A, R113T, E114A) (human, UniProt P49961 1-510).
T4 construct: Transfected in HEK293T cells
T4 chain: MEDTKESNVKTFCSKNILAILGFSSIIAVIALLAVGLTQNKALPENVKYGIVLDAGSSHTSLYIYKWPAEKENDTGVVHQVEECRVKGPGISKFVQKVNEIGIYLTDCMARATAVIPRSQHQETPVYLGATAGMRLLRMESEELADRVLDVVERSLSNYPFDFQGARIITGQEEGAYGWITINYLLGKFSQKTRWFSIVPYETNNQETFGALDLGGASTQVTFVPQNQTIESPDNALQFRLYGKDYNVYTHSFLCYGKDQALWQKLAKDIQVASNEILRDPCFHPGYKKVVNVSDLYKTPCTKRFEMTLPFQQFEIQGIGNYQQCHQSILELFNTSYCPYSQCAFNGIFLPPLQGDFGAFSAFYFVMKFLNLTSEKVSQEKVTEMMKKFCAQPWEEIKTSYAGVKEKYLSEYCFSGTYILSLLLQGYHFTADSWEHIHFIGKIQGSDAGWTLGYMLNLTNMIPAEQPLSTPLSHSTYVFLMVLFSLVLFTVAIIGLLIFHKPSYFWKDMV
As to the kind of experiment: flow cytometry, HEK293T cells transfected with mutant 2B.

B1: Antibody I-391, Fc silent recombinant chimeric human IgG1 with heavy chain N297Q mutation (antibody, V domains shown)
VH: QIQLVQSGPELKKPGETVKISCKASGYTFRNYGMNWVKQAPGKGLKWMGWINTYTGEPTYADDFKGRFAFSLATSASTAYLQISNLKNEDTATYFCARKAYYGSNYYFDYWGQGTTLTVSS
VL: DIVMTQSHKFMSTSVGDRVSITCKASQDVSTAVAWYQQKPGQSPKLLIYSASYRYTGVPDRFTGSGSGTDFTFTISTVQAEDLAVYYCQQHYTTPPYTFGGGTKLEIKR
The term EC50 denotes the midpoint of the concentration-response curve. The molecule B1 gave an EC50 in assay [1] of 14.9 nM. Also, the binding result in assay [2] was “no binding (tested: 50 ug/ml)”; in assay [3], “no binding (tested: dose range 10 to 0.0006 µg/ml)”; in assay [4] it was “binds”.
